Assay results reported in the supplement of paper PMC7877785.
± gives the uncertainty stated by the source.

Test: self-splicing fitness, log relative to wild type (ln ratio); higher = more splicing; Tetrahymena group I intron in knt gene, E. coli kanamycin selection, DiMSum; sequences stand for … in CUCUCU…GGAGGGAAAAGUUAUCAGGCAUGCACCUGGUAGCUAGUCUUUAAACCAAUAGAUUGCAUCGGUUUAAAAGGCAAGACCGUCAAAUUGCGGGAAAGGGGUCAACAGCCGUUCAGUACCAAGUCUCAGGGGAAACUUUGAGAUGGCCUUGCAAAGGGUAUGGUAAUAAGCUGACGGACAUGGUCCUAACCACGCAGCCAAGUCCUAAGUCAACAGAUCUUCUGUUGAUAUGGAUGCAGUUCACAGACUAAAUGUCGGUCGGGGAAGAUGUAUUCUUCUCAUAAGAUAUAGUCGGACCUCUCCUUAAUGGGAGCUAGCGGAUGAAGUGAUGCAACACUGGAGCCGCUGGGAACUAAUUUGUAUGCGAAAGUAUAUUGAUUAGUUUUGGAGUACUCGUGGUCG
In short: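 Colonies from six replicate transformations of E. coli BL21(DE3) were pooled and amplicon-sequenced on an Illumina HiSeq 2500. The library placed an intron with all eight P1ex-region nucleotides randomised inside the knt kanamycin-resistance gene on pET-22b(+), and cells grew overnight at 37°C or 30°C on LB agar with or without 25 μg/mL kanamycin (plus 100 μg/mL carbenicillin, 50 μM IPTG, 0.2% rhamnose). Fitness is the DiMSum error-weighted combination of wild-type-normalised replicate fold changes, kanamycin versus none.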

Sequence	self-splicing fitness (ln) (30 °C)	self-splicing fitness (ln) (37 °C)
UUGCAGCAAUAUUACGUUCU	-2.44 ± 0.12	-0.872 ± 0.11
UUGCAGCAAUAUUACGUUUG	-2.14 ± 0.14	-0.998 ± 0.14
UUGGAGCAAUAUUACGAAUA		-2.1 ± 0.46
UUGGAGCAAUAUUACGACUA	-1.58 ± 0.41	
UUGGAGCAAUAUUACGACUU	-1.94 ± 0.19	-0.866 ± 0.28
UUGGAGCAAUAUUACGCCAA	-1.49 ± 0.44	
UUGGAGCAAUAUUACGCGAA		-1.4 ± 0.29
UUGGAGCAAUAUUACGCGCG	-2.3 ± 0.11	-0.8 ± 0.1
UUGGAGCAAUAUUACGCGGC		-1.26 ± 0.41
UUGGAGCAAUAUUACGCUCC	-2.79 ± 0.33	-0.876 ± 0.46
UUGGAGCAAUAUUACGGAAA	-3.48 ± 0.47	-1.64 ± 0.24
UUGGAGCAAUAUUACGGCCG	-1.89 ± 0.3	-0.616 ± 0.29
UUGGAGCAAUAUUACGGCCU	-2.26 ± 0.29	-1.25 ± 0.27
UUGGAGCAAUAUUACGGGCU		-2.95 ± 0.34
UUGGAGCAAUAUUACGGUAA	-1.27 ± 0.26	-1.01 ± 0.27
UUGGAGCAAUAUUACGGUUU	-3.38 ± 0.31	-2.9 ± 0.47
UUGGAGCAAUAUUACGUAGA	-3.22 ± 0.27	-1.77 ± 0.18
UUGGAGCAAUAUUACGUAGG	-3.11 ± 0.23	-1.86 ± 0.15
UUGGAGCAAUAUUACGUAUA	-2.08 ± 0.44	
UUGGAGCAAUAUUACGUGAG	-1.84 ± 0.13	-1.54 ± 0.2
UUGGAGCAAUAUUACGUUAC	-3.66 ± 0.33	-2.25 ± 0.24
UUGGAGCAAUAUUACGUUUA	-2.44 ± 0.44	
UUGUAGCAAUAUUACGAAAG	-2.43 ± 0.32	-2.69 ± 0.34
UUGUAGCAAUAUUACGAAUG	-3.32 ± 0.41	-1.93 ± 0.29
UUGUAGCAAUAUUACGACCG	-0.716 ± 0.36	-0.156 ± 0.26
UUGUAGCAAUAUUACGACGA	-1.08 ± 0.26	-0.0034 ± 0.36

Sequence	self-splicing fitness (ln) (30 °C)	self-splicing fitness (ln) (37 °C)
UUGUAGCAAUAUUACGACUU	-0.894 ± 0.3	0.769 ± 0.36
UUGUAGCAAUAUUACGAGUC	-3.94 ± 0.42	-2.67 ± 0.32
UUGUAGCAAUAUUACGAUUA	-0.945 ± 0.11	-0.211 ± 0.1
UUGUAGCAAUAUUACGCAGA	-2.2 ± 0.35	-0.763 ± 0.28
UUGUAGCAAUAUUACGCCGC		-2.68 ± 0.4
UUGUAGCAAUAUUACGCCUA	-0.297 ± 0.12	0.0606 ± 0.13
UUGUAGCAAUAUUACGCCUC	-2.07 ± 0.48	
UUGUAGCAAUAUUACGCCUU	-0.585 ± 0.17	0.0387 ± 0.17
UUGUAGCAAUAUUACGCUUG	-0.622 ± 0.12	-0.277 ± 0.13
UUGUAGCAAUAUUACGCUUU		-2.81 ± 0.31
UUGUAGCAAUAUUACGGAGA		-2.21 ± 0.42
UUGUAGCAAUAUUACGGAUC	-3.53 ± 0.3	-2.48 ± 0.26
UUGUAGCAAUAUUACGGCCU	-0.844 ± 0.2	-0.408 ± 0.25
UUGUAGCAAUAUUACGGGCC		-1.69 ± 0.38
UUGUAGCAAUAUUACGGUGU	-2.41 ± 0.42	-2.3 ± 0.26
UUGUAGCAAUAUUACGGUUA	-1.41 ± 0.14	-0.784 ± 0.13
UUGUAGCAAUAUUACGUAGC	-3.44 ± 0.31	-2.87 ± 0.25
UUGUAGCAAUAUUACGUCAG	-1.12 ± 0.22	-0.45 ± 0.19
UUGUAGCAAUAUUACGUGCA	-2.4 ± 0.15	-1.14 ± 0.18
UUGUAGCAAUAUUACGUGUC	-3.17 ± 0.15	
UUUAAGCAAUAUUACGAAUC	-2.96 ± 0.28	-1.04 ± 0.25
UUUAAGCAAUAUUACGAGCA	-1.38 ± 0.21	-0.686 ± 0.22
UUUAAGCAAUAUUACGAGCU	-2.94 ± 0.22	-0.0484 ± 0.17
UUUAAGCAAUAUUACGCACA	-0.157 ± 0.068	0.181 ± 0.086
UUUAAGCAAUAUUACGCCAU		-2.36 ± 0.29
UUUAAGCAAUAUUACGCCGU	-1.49 ± 0.41	-1.84 ± 0.27

Sequence	self-splicing fitness (ln) (30 °C)	self-splicing fitness (ln) (37 °C)
UUUAAGCAAUAUUACGCUAG	-1.54 ± 0.15	-0.671 ± 0.2
UUUAAGCAAUAUUACGCUGA	-2.47 ± 0.2	-0.978 ± 0.15
UUUAAGCAAUAUUACGCUUC	-2.24 ± 0.35	
UUUAAGCAAUAUUACGGAAU	-3.63 ± 0.26	-2.36 ± 0.33
UUUAAGCAAUAUUACGGCCG	-0.19 ± 0.21	-0.0514 ± 0.26
UUUAAGCAAUAUUACGGCGC	-1.15 ± 0.17	-0.784 ± 0.23
UUUAAGCAAUAUUACGGCUU	-1.8 ± 0.14	-1.86 ± 0.27
UUUAAGCAAUAUUACGGGAC	-1.77 ± 0.16	-2 ± 0.42
UUUAAGCAAUAUUACGGGCU	-2.91 ± 0.3	-2.18 ± 0.3
UUUAAGCAAUAUUACGGUGA	-1.11 ± 0.11	-0.554 ± 0.12
UUUAAGCAAUAUUACGGUGU	-3.85 ± 0.28	-2.3 ± 0.35
UUUAAGCAAUAUUACGUAAU	-2.15 ± 0.11	-1.74 ± 0.12
UUUAAGCAAUAUUACGUACA	-0.498 ± 0.12	0.0487 ± 0.14
UUUAAGCAAUAUUACGUCAG	-0.728 ± 0.12	-0.571 ± 0.12
UUUAAGCAAUAUUACGUGAC	-3.33 ± 0.21	-2.11 ± 0.21
UUUAAGCAAUAUUACGUGAU	-2.59 ± 0.15	-1.67 ± 0.21
UUUAAGCAAUAUUACGUGGG	-2.92 ± 0.13	-2.1 ± 0.17
UUUAAGCAAUAUUACGUUUC	-3.96 ± 0.35	-3.19 ± 0.4
UUUAAGCAAUAUUACGUUUU	-3.93 ± 0.2	-1.22 ± 0.16
UUUCAGCAAUAUUACGAAAC		-2.53 ± 0.3
UUUCAGCAAUAUUACGAGCA	-1.41 ± 0.14	-0.671 ± 0.12
UUUCAGCAAUAUUACGAUCA	0.131 ± 0.14	0.086 ± 0.14
UUUCAGCAAUAUUACGAUGU	-2.13 ± 0.13	-1.47 ± 0.15
UUUCAGCAAUAUUACGCAAA	-2.1 ± 0.15	-0.378 ± 0.13
UUUCAGCAAUAUUACGCAGU	-4.25 ± 0.31	-1.59 ± 0.17
UUUCAGCAAUAUUACGCGAC	-2.9 ± 0.37	

Sequence	self-splicing fitness (ln) (30 °C)	self-splicing fitness (ln) (37 °C)
UUUCAGCAAUAUUACGCUAA	-1.25 ± 0.18	-0.815 ± 0.17
UUUCAGCAAUAUUACGCUUU	-2.69 ± 0.14	-1.52 ± 0.13
UUUCAGCAAUAUUACGGAAC	-1.24 ± 0.22	
UUUCAGCAAUAUUACGGACU	-0.982 ± 0.13	-0.184 ± 0.11
UUUCAGCAAUAUUACGGAGA	-1.26 ± 0.14	-1.13 ± 0.22
UUUCAGCAAUAUUACGGAUG	-0.64 ± 0.064	0.256 ± 0.096
UUUCAGCAAUAUUACGGGAA	-1.96 ± 0.2	-1.93 ± 0.21
UUUCAGCAAUAUUACGGGGC	-2.91 ± 0.18	-3.35 ± 0.31
UUUCAGCAAUAUUACGGGGU	-3.58 ± 0.17	-1.68 ± 0.15
UUUCAGCAAUAUUACGGUAG	-0.521 ± 0.088	-0.526 ± 0.12
UUUCAGCAAUAUUACGUAAU	-2.89 ± 0.14	-1.58 ± 0.16
UUUCAGCAAUAUUACGUAGG	-0.515 ± 0.068	-0.741 ± 0.11
UUUCAGCAAUAUUACGUCAU	-3.32 ± 0.24	-2.47 ± 0.35
UUUCAGCAAUAUUACGUGAA	-0.761 ± 0.061	-0.17 ± 0.088
UUUCAGCAAUAUUACGUGGU	-3.84 ± 0.2	-3.02 ± 0.21
UUUGAGCAAUAUUACGAAGA	-2.31 ± 0.44	-1.55 ± 0.38
UUUGAGCAAUAUUACGACUU	-3.13 ± 0.34	-2.28 ± 0.37
UUUGAGCAAUAUUACGAGCU	-2.69 ± 0.39	
UUUGAGCAAUAUUACGAUUA	-2.13 ± 0.41	-2.41 ± 0.36
UUUGAGCAAUAUUACGCAGA		-1.51 ± 0.32
UUUGAGCAAUAUUACGCCCU	-1.25 ± 0.41	-1.96 ± 0.41
UUUGAGCAAUAUUACGGAAC	-1.63 ± 0.16	-1.2 ± 0.24
UUUGAGCAAUAUUACGGAUG	-2.66 ± 0.21	
UUUGAGCAAUAUUACGGCUG	-0.955 ± 0.11	-0.634 ± 0.17
